Test results: the DeepSol protein solubility set

Assay: soluble on expression in E. coli; label from the status in PepcDB or PDB records

Sequence | soluble on expression in E. coli
MTTTPANVLASVDLGSNSFRLQICENNNGQLKVIDSFKQMVRFAAGLDEQKNLSAASQEQALDCLAKFGERLRGFRPEQVRAVATNTFRVAKNIADFLPKAEAALGFPIEIIAGREEARLIYTGVIHTLPPGGGKMLVIDIGGGSTEFVIGSTLNPDITESLPLGCVTYSLRFFQNKITAKDFQSAISAARNEIQRISKNMRREGWDFAVGTSGSAKSIRDVLAAEMPQEADITYKGMRALAERIIEAGSVKKAKFENLKPERIEVFAGGLAVMMAAFEEMKLDRMTVTEAALRDGVFYDLIGRGLNEDMRGQTVAEFQHRYHVSLNQAKRTAETAQTFMDSLCHAKNVTVQELALWQQYLGRAAALHEIGLDIAHTGYHKHSAYILENADMPGFSRKEQTILAQLVIGHRGDMKKMSGIIGTNEMLWYAVLSLRLAALFCRSRQDLSFPKNMQLRTDTESCGFILRIDREWLERHPLIADALEYESVQWQKINMPFKVEAV | not soluble
MGSDKIHHHHHHMRVITVAGPPSVGKTSVVVKTATTLAAQGHRLGIVKFDSLSTSDDQVYRRAGLPVVVGLSGNVCPDHFFVSNIDDCVDWGRTHGVDILVAESAGLCNRCSPHVQGVQAICVVDNLSGVHTPRKIGPMLKLADVVVITKGDIVSQAEREVFAYNVRLANPRAQVMQFHGITGQGASDLAARMLCAPVVDALEGRRLRFSMPSAVCPYCIGETAIGVDHQRGNVRKMSFAEPAR | not soluble
TEVELAYLVSESQLIGITGSNGKTTTTTMIAEVLNAGGQRGLLAGNIGFPASEVVQAANDKDTLVMELSSFQLMGVKEFRPHIAVITNLMPTHLDYHGSFEDYVAAKWNIQNQMSSSDFLVLNFNQGISKELAKTTKATIVPFSTTEKVDGAYVQDKQLFYKGENIMSVDDIGVPGSHNVENALATIAVAKLAGISNQVIRETLSNFGG | not soluble
MSLSTIRIGGAAVNQTPIDWENNVKNILDAIEEAKNANVEILCLPELCITGYGCEDLFLTDWVAETAIEYCFEIAASCTDITVSLGLPMRIAGITYNCVCLVENGIVKGFSAKQFLANEGVHYETRWFTAWPRNHTTTFLYNDVKYPFGDVLYNVKDARIGFEICEDAWRTDRVGIRHYEKGATLVLNPSASHFAFGKSAIRYDLVIGGSERFDCTYVYANLLGNEAGRMIYDGEVLIAHKGKLIQRNDRLSFKNVNLIYADIATDSAETPETVLTQDDLEKEFEFWEATSLGLFDYMRKSRSKGFVLSLSGGADSSACAIMVAEMIRKGLKELGLTAFLQKSNMETLFDLPALQHLPFEEQAKKITAVFLTTAYQSTRNSGDETYTSAKTLAESIGATFYNWSVDEEIEQYKATIENVIERPLTWEKDDITLQNIQARGRAPIIWMLTNVKQALLITTSNRSEGDVGYATMDGDTAGGIAPIAGVDKDFIRSWLRWAEKNRNQHGLHIVNKLAPTAELRPSEYTQTDERDLMPYDVLARIERKAIKERLSPVQVYTALLTEGPYTKNEFKYWVKKFFRLWSINQWKRERLAPSFHMDDFNIDPRSWYRFPILSSGFAKELNDLDQEGHHHHHH | soluble
MKRLSFLTLRPRHLSFLTLQRRNALRDALRHRSAPRRAFRIGRRASRTACDAERRTIVRLSFRALQPRRLSLLTLQRRNALRDALRHRSAPRRVFRIGRRASRTACDAQRCTIVRLSFRALQPRRLSFLTLQRRSALRDALHHKSAPRCTFKIGRGASRTACDAERRTIVRLSFRALQPRRLSFLTLQRRNALGDALRHKSAPRCTFKIGREASRTACDAERRTIVRLSFRALQPRRLSFLTLQRRNALRDALRHKSAPRRAFRIGRRASRTACDAERRTIVSQISLNALEHHHHHH | not soluble
SNAMKDVLAEYASRIVSAEEAVKHIKNGERVALSHAAGVPQSCVDALVQQADLFQNVEIYHMLCLGEGKYMAPEMAPHFRHITNFVGGNSRKAVEENRADFIPVFFYEVPSMIRKDILHIDVAIVQLSMPDENGYCSFGVSCDYSKPAAESAHLVIGEINRQMPYVHGDNLIHISKLDYIVMADYPIYSLAKPKIGEVEEAIGRNCAELIEDGATLQLGIGAIPDAALLFLKDKKDLGIHTEMFSDGVVELVRSGVITGKKKTLHPGKMVATFLMGSEDVYHFIDKNPDVELYPVDYVNDPRVIAQNDNMVSINSCIEIDLMGQVVSECIGSKQFSGTGGQVDYVRGAAWSKNGKSIMAIPSTAKNGTASRIVPIIAEGAAVTTLRNEVDYVVTEYGIAQLKGKSLRQRAEALIAIAHPDFREELTKHLRKRFG | soluble
